From US20250152717A1 (AFFINI T THERAPEUTICS, published 2025)

Biological target: RAB7B-derived peptide presented by HLA-A11 (human)
Test: cell-based or functional assay
Design: unit not given beside the values

B1: TCR 11N4A (TCR, V domains shown)
V domain 1: DQQVKQNSPSLSVQEGRISILNCDYTNSMFDYFLWYKKYPAEGPTFLISISSIKDKNEDGRFTVFLNKSAKHLSLHIVPSQPGDSAVYFCAASGVSGNTPLVFGKGTRLSVIA
V domain 2: GVTQTPRYLIKTRGQQVTLSCSPISGHRSVSWYQQTPGQGLQFLFEYFSETQRNKGNFPGRFSGRQFSNSRSEMNVSTLELGDSALYLCASSVGTVEQYFGPGTRLTVTE
EC50 of the peptide dose-response of CD137 expression, sort-purified TCR 11N4A-transduced T cells: ~35
